Results on one substance are retold here after article PMC11643043.

The target of this experiment is soluble CD20^Avi. Briefly: SEC-MALS. On the technique in general: In gel filtration, larger molecules generally elute earlier.

Take soluble CD20^Avi: the stoichiometry N (in general, a count of units in the complex or per binding partner) came out at 2.
